Experimental data reported in patent US20250262210A1 (TRUSTEES OF COLUMBIA UNIVERSITY IN THE CITY OF NEW YORK, published 2025).

Columns and labels:
DMXL2 = DMXL2 (human, UniProt Q8TDJ6 1-3036, limits assumed); experiment: IP/MS, LZTR1 wild type-FLAG, U87
Method in brief: (§1)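 Gel slices were reduced with 5 mM DTT, alkylated with 11 mM IAA and digested overnight at 37° C. with trypsin. Peptides were analysed on an Orbitrap Fusion Tribrid by LC-MS/MS.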

NCAPD3 = molecular target: T1, NCAPD3 (human, UniProt P42695 1-1498); experiment: IP/MS, LZTR1 wild type-FLAG, U87
T1 sequence (looked up): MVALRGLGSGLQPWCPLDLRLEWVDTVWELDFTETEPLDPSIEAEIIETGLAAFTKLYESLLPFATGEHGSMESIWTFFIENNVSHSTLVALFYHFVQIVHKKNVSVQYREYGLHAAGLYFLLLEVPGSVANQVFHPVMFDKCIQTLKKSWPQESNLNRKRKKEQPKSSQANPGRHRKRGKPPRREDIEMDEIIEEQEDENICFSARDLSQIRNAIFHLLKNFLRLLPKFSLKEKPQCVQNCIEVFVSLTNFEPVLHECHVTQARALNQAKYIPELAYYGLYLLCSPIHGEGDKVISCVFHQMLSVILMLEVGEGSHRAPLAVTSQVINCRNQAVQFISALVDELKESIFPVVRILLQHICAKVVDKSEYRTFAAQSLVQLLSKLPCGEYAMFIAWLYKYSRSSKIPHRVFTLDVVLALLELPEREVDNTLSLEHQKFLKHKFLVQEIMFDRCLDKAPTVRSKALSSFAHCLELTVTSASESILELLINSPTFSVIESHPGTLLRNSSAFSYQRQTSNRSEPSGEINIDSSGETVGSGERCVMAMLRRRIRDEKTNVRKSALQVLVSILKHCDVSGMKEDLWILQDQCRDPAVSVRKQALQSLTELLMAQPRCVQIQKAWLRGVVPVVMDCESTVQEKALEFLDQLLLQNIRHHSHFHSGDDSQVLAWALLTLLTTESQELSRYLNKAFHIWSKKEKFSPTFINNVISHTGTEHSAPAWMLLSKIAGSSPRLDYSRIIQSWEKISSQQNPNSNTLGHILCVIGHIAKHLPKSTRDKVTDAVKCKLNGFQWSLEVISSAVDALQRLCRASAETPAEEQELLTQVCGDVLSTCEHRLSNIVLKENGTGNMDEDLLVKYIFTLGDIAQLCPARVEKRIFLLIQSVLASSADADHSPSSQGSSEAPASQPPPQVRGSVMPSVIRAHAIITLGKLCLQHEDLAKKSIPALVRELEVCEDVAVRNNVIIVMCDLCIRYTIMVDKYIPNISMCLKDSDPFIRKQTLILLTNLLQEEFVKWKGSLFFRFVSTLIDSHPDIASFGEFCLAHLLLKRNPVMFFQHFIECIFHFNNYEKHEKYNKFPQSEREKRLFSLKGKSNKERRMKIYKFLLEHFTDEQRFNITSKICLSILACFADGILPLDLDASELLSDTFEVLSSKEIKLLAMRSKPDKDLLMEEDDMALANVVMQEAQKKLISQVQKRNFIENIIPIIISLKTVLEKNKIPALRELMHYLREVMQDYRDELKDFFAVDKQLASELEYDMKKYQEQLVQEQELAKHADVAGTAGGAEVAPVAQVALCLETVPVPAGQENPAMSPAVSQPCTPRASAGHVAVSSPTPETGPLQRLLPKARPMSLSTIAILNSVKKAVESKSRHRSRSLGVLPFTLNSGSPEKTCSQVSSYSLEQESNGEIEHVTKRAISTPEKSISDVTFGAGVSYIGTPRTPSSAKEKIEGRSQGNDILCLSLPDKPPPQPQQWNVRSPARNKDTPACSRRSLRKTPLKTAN
Method in brief: as §1

DMXL2, sequence (Q8TDJ6 whole entry, the tested form may be a part): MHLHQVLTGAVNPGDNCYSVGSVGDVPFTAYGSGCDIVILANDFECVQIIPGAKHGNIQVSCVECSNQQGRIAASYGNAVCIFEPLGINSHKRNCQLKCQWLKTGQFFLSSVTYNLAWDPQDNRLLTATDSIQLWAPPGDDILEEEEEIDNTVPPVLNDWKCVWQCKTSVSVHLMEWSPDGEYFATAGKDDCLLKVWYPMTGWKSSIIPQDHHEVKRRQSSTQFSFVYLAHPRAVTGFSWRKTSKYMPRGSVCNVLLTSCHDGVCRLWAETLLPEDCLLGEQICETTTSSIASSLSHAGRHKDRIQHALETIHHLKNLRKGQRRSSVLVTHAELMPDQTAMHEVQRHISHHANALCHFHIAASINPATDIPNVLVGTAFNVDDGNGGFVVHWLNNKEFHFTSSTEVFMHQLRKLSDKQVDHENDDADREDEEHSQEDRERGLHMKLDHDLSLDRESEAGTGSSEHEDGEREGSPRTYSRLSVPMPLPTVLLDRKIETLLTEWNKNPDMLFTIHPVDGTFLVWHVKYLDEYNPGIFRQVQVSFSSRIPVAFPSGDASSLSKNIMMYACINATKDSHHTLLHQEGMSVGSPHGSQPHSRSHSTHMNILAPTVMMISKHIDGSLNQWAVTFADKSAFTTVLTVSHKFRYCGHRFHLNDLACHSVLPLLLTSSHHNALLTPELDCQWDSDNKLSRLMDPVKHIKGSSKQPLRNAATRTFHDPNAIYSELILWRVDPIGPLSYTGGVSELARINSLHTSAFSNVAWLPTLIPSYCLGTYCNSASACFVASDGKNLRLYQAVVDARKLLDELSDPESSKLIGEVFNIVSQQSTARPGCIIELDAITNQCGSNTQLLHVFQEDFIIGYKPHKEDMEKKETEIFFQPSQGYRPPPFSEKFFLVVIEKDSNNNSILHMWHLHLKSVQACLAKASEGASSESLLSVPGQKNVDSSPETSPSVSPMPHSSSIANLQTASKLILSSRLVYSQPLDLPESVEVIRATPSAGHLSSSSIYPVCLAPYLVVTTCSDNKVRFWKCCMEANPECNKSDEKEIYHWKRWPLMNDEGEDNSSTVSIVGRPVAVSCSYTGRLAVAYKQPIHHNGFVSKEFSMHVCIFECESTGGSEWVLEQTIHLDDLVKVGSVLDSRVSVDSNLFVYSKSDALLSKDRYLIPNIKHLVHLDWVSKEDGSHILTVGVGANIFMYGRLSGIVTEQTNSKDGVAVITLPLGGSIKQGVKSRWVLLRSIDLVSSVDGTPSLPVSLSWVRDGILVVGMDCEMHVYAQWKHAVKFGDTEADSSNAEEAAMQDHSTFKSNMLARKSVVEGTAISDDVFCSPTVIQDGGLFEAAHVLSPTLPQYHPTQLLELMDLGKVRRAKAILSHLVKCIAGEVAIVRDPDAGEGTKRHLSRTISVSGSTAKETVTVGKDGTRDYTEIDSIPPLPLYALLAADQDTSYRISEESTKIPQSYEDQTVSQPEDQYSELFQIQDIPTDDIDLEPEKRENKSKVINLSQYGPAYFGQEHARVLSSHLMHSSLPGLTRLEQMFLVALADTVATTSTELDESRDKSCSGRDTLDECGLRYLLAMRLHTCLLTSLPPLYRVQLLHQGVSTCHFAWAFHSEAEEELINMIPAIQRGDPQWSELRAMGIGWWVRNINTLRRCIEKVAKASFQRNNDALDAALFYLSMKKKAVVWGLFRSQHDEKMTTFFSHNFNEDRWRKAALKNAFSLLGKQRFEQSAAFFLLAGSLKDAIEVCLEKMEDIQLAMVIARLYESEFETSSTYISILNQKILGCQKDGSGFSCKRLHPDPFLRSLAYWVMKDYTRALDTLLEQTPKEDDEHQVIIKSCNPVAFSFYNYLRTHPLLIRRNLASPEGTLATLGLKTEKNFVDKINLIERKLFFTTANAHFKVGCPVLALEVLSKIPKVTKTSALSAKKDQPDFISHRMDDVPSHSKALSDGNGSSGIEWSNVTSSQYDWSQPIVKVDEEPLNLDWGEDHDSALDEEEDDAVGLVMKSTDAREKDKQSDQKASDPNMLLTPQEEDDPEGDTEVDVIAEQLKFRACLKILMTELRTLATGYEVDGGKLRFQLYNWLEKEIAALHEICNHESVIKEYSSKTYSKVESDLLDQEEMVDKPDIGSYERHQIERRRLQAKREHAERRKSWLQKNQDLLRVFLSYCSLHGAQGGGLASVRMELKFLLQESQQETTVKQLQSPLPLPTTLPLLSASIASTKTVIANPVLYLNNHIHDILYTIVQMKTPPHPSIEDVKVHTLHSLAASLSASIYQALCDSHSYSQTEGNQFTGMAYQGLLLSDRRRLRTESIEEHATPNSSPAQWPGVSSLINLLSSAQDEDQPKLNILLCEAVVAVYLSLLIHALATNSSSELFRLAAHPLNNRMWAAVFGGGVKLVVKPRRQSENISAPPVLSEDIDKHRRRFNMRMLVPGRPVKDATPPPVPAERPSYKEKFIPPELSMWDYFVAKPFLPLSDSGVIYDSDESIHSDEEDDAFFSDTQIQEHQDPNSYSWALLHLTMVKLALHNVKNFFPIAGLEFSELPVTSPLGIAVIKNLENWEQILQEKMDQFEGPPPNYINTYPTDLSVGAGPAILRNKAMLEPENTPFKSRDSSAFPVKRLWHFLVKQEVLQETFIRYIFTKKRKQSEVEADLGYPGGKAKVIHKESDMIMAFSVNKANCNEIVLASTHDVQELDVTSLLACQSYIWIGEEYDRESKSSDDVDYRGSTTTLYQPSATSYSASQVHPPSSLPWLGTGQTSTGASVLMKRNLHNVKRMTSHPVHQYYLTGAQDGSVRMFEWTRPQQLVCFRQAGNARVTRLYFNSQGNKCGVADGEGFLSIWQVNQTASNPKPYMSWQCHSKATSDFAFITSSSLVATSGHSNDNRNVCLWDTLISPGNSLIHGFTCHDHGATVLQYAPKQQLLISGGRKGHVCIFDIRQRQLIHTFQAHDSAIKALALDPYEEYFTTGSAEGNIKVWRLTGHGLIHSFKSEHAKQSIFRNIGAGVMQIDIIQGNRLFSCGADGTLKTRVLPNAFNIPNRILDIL

B1: LZTR1-FLAG (other, human, UniProt Q8N653 1-840, looked up)
chain: MAGPGSTGGQIGAAALAGGARSKVAPSVDFDHSCSDSVEYLTLNFGPFETVHRWRRLPPCDEFVGARRSKHTVVAYKDAIYVFGGDNGKTMLNDLLRFDVKDCSWCRAFTTGTPPAPRYHHSAVVYGSSMFVFGGYTGDIYSNSNLKNKNDLFEYKFATGQWTEWKIEGRLPVARSAHGATVYSDKLWIFAGYDGNARLNDMWTIGLQDRELTCWEEVAQSGEIPPSCCNFPVAVCRDKMFVFSGQSGAKITNNLFQFEFKDKTWTRIPTEHLLRGSPPPPQRRYGHTMVAFDRHLYVFGGAADNTLPNELHCYDVDFQTWEVVQPSSDSEVGGAEVPERACASEEVPTLTYEERVGFKKSRDVFGLDFGTTSAKQPTQPASELPSGRLFHAAAVISDAMYIFGGTVDNNIRSGEMYRFQFSCYPKCTLHEDYGRLWESRQFCDVEFVLGEKEECVQGHVAIVTARSRWLRRKITQARERLAQKLEQEAAPVPREAPGVAAGGARPPLLHVAIREAEARPFEVLMQFLYTDKIKYPRKGHVEDVLLIMDVYKLALSFQLCRLEQLCRQYIEASVDLQNVLVVCESAARLQLSQLKEHCLNFVVKESHFNQVIMMKEFERLSSPLIVEIVRRKQQPPPRTPLDQPVDIGTSLIQDMKAYLEGAGAEFCDITLLLDGHPRPAHKAILAARSSYFEAMFRSFMPEDGQVNISIGEMVPSRQAFESMLRYIYYGEVNMPPEDSLYLFAAPYYYGFYNNRLQAYCKQNLEMNVTVQNVLQILEAADKTQALDMKRHCLHIIVHQFTKVSKLPTLRSLSQQLLLDIIDSLASHISDKQCAELGADI
notes: Expressed in HEK 293T, HeLa or U87 cells; used as cell lysate; also called LZTR1 wild type-FLAG; LZTR1 WT; not shown: FLAG tag at the C-terminus
binding result (DMXL2): binds
binding result (NCAPD3): binds
